T1: human CXCR3 (hCXCR3) on Ba/F3 transfectant cells (human, UniProt P49682 1-368)
T1 sequence: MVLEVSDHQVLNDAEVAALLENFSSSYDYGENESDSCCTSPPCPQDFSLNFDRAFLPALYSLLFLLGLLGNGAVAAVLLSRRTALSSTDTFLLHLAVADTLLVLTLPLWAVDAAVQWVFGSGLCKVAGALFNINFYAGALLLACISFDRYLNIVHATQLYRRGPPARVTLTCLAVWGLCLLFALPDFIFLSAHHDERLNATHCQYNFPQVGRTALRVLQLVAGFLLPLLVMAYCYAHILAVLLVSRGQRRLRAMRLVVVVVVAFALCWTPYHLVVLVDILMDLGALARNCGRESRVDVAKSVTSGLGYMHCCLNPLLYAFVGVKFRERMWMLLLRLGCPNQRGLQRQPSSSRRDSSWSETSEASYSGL


target: T1, human CXCR3 (hCXCR3) on Ba/F3 …; test: cell-based or functional assay

Luminescence value at 33 nM	Luminescence value at 100 nM	Luminescence value at 300 nM	Activity retention rate at 33 nM	Activity retention rate at 100 nM	Activity retention rate at 300 nM	Binder
7.68e+06	1.67e+07	1.24e+07	–	–	–	hCXCL11-G1T4k.one//VHn-G1T4h.one.H435R (Fc fusion) chain 1: FPMFKRGRCLCIGPGVKAVKVADIEKASIMYPSNNCDKIEVIITLKENKGQRCLNPKSKQARLIIKKVERKNFEPKSSDKTHTCPPCPAPELRRGPSVFLFPPKPKDTLMISRTPEVTCVVVDVSHEDPEVKFNWYVDGVEVHNAKTKPREEQYNSTYRVVSVLTVLHQDWLNGKEYKCKVSNKGLPSSIEKTISKAKGQPREPQVCTLPPSREEMTKNQVSLWCLVKGFYPSDIAVEWESNGQPENNYKTTPPVLDSDGSFFLYSKLTVDKSRWQEGNVFSCSVMHEALHNHYTQKSLSLSP chain 2: EPKSSDKTHTCPPCPAPELRRGPSVFLFPPKPKDTLMISRTPEVTCVVVDVSHEDPEVKFNWYVDGVEVHNAKTKPREEQYNSTYRVVSVLTVLHQDWLNGKEYKCKVSNKGLPSSIEKTISKAKGQPREPQVYTLPPSRCEMTKNQVSLSCAVKGFYPSDIAVEWESNGQPENNYKTTPPVLDSDGSFFLVSKLTVDKSRWQEGNVFSCSVMHEALHNRYTQKSLSLSP
3.76e+06	1.17e+07	1.12e+07	49%	70%	90%	hCXCL11.0003-G1T4k.one//VHn-G1T4h.one.H435R (Fc fusion) chain 1: FAMFKRGRCLCIGPGVKAVKVADIEKASIMYPSNNCDKIEVIITLKENKGQRCLNPKSKQARLIIKKVERKNFEPKSSDKTHTCPPCPAPELRRGPSVFLFPPKPKDTLMISRTPEVTCVVVDVSHEDPEVKFNWYVDGVEVHNAKTKPREEQYNSTYRVVSVLTVLHQDWLNGKEYKCKVSNKGLPSSIEKTISKAKGQPREPQVCTLPPSREEMTKNQVSLWCLVKGFYPSDIAVEWESNGQPENNYKTTPPVLDSDGSFFLYSKLTVDKSRWQEGNVFSCSVMHEALHNHYTQKSLSLSP chain 2: EPKSSDKTHTCPPCPAPELRRGPSVFLFPPKPKDTLMISRTPEVTCVVVDVSHEDPEVKFNWYVDGVEVHNAKTKPREEQYNSTYRVVSVLTVLHQDWLNGKEYKCKVSNKGLPSSIEKTISKAKGQPREPQVYTLPPSRCEMTKNQVSLSCAVKGFYPSDIAVEWESNGQPENNYKTTPPVLDSDGSFFLVSKLTVDKSRWQEGNVFSCSVMHEALHNRYTQKSLSLSP
3.15e+06	9.44e+06	5.24e+06	41%	57%	42%	hCXCL11.0004-G1T4k.one//VHn-G1T4h.one.H435R (Fc fusion) chain 1: FDMFKRGRCLCIGPGVKAVKVADIEKASIMYPSNNCDKIEVIITLKENKGQRCLNPKSKQARLIIKKVERKNFEPKSSDKTHTCPPCPAPELRRGPSVFLFPPKPKDTLMISRTPEVTCVVVDVSHEDPEVKFNWYVDGVEVHNAKTKPREEQYNSTYRVVSVLTVLHQDWLNGKEYKCKVSNKGLPSSIEKTISKAKGQPREPQVCTLPPSREEMTKNQVSLWCLVKGFYPSDIAVEWESNGQPENNYKTTPPVLDSDGSFFLYSKLTVDKSRWQEGNVFSCSVMHEALHNHYTQKSLSLSP chain 2: EPKSSDKTHTCPPCPAPELRRGPSVFLFPPKPKDTLMISRTPEVTCVVVDVSHEDPEVKFNWYVDGVEVHNAKTKPREEQYNSTYRVVSVLTVLHQDWLNGKEYKCKVSNKGLPSSIEKTISKAKGQPREPQVYTLPPSRCEMTKNQVSLSCAVKGFYPSDIAVEWESNGQPENNYKTTPPVLDSDGSFFLVSKLTVDKSRWQEGNVFSCSVMHEALHNRYTQKSLSLSP
3.11e+06	9.59e+06	6.03e+06	40%	57%	49%	hCXCL11.0005-G1T4k.one//VHn-G1T4h.one.H435R (Fc fusion) chain 1: FEMFKRGRCLCIGPGVKAVKVADIEKASIMYPSNNCDKIEVIITLKENKGQRCLNPKSKQARLIIKKVERKNFEPKSSDKTHTCPPCPAPELRRGPSVFLFPPKPKDTLMISRTPEVTCVVVDVSHEDPEVKFNWYVDGVEVHNAKTKPREEQYNSTYRVVSVLTVLHQDWLNGKEYKCKVSNKGLPSSIEKTISKAKGQPREPQVCTLPPSREEMTKNQVSLWCLVKGFYPSDIAVEWESNGQPENNYKTTPPVLDSDGSFFLYSKLTVDKSRWQEGNVFSCSVMHEALHNHYTQKSLSLSP chain 2: EPKSSDKTHTCPPCPAPELRRGPSVFLFPPKPKDTLMISRTPEVTCVVVDVSHEDPEVKFNWYVDGVEVHNAKTKPREEQYNSTYRVVSVLTVLHQDWLNGKEYKCKVSNKGLPSSIEKTISKAKGQPREPQVYTLPPSRCEMTKNQVSLSCAVKGFYPSDIAVEWESNGQPENNYKTTPPVLDSDGSFFLVSKLTVDKSRWQEGNVFSCSVMHEALHNRYTQKSLSLSP
326000	4.55e+06	9.79e+06	4%	27%	79%	hCXCL11.0006-G1T4k.one//VHn-G1T4h.one.H435R (Fc fusion) chain 1: FFMFKRGRCLCIGPGVKAVKVADIEKASIMYPSNNCDKIEVIITLKENKGQRCLNPKSKQARLIIKKVERKNFEPKSSDKTHTCPPCPAPELRRGPSVFLFPPKPKDTLMISRTPEVTCVVVDVSHEDPEVKFNWYVDGVEVHNAKTKPREEQYNSTYRVVSVLTVLHQDWLNGKEYKCKVSNKGLPSSIEKTISKAKGQPREPQVCTLPPSREEMTKNQVSLWCLVKGFYPSDIAVEWESNGQPENNYKTTPPVLDSDGSFFLYSKLTVDKSRWQEGNVFSCSVMHEALHNHYTQKSLSLSP chain 2: EPKSSDKTHTCPPCPAPELRRGPSVFLFPPKPKDTLMISRTPEVTCVVVDVSHEDPEVKFNWYVDGVEVHNAKTKPREEQYNSTYRVVSVLTVLHQDWLNGKEYKCKVSNKGLPSSIEKTISKAKGQPREPQVYTLPPSRCEMTKNQVSLSCAVKGFYPSDIAVEWESNGQPENNYKTTPPVLDSDGSFFLVSKLTVDKSRWQEGNVFSCSVMHEALHNRYTQKSLSLSP
3.47e+06	1.02e+07	9.71e+06	45%	61%	78%	hCXCL11.0007-G1T4k.one//VHn-G1T4h.one.H435R (Fc fusion) chain 1: FGMFKRGRCLCIGPGVKAVKVADIEKASIMYPSNNCDKIEVIITLKENKGQRCLNPKSKQARLIIKKVERKNFEPKSSDKTHTCPPCPAPELRRGPSVFLFPPKPKDTLMISRTPEVTCVVVDVSHEDPEVKFNWYVDGVEVHNAKTKPREEQYNSTYRVVSVLTVLHQDWLNGKEYKCKVSNKGLPSSIEKTISKAKGQPREPQVCTLPPSREEMTKNQVSLWCLVKGFYPSDIAVEWESNGQPENNYKTTPPVLDSDGSFFLYSKLTVDKSRWQEGNVFSCSVMHEALHNHYTQKSLSLSP chain 2: EPKSSDKTHTCPPCPAPELRRGPSVFLFPPKPKDTLMISRTPEVTCVVVDVSHEDPEVKFNWYVDGVEVHNAKTKPREEQYNSTYRVVSVLTVLHQDWLNGKEYKCKVSNKGLPSSIEKTISKAKGQPREPQVYTLPPSRCEMTKNQVSLSCAVKGFYPSDIAVEWESNGQPENNYKTTPPVLDSDGSFFLVSKLTVDKSRWQEGNVFSCSVMHEALHNRYTQKSLSLSP
